Measured values as given in patent US20120178116A1, “POLYPEPTIDES FOR IDENTIFYING FUNGICIDALLY ACTIVE COMPOUNDS” (priority 2011, published 2012).

Key:
[1] = biological target: complex of SEQ ID NO: 12 and SEQ ID NO: 16 (MBP-AK / MBP-AKA) (Ustilago maydis, UniProt A0A0D1E894); assay: IMAP fluorescence polarization assay, inhibitor measurement of aurora kinase activity; format: biochemical, U. maydis
Description: Assay 3: For the commercially available IMAP Assay (Molecular Devices), 2 substrates for human aurora kinases (Kemptide, Cat #R7331, sequence 5TAMRA-LRRASLG-OH and PKAtide, Cat #R7250, Lot #130188, sequence 5FAM-GRTGRRNSI-NH2) may be purchased commercially. The assay was carried out in accordance with the instructions of the manufacturer.
The IMAP fluorescence polarization assay (Molecular Devices) is based on the specific high-affinity interaction between phosphate groups and trivalent metal ions. The kinase reaction phospholrylates a fluorescent substrate which is then specifically bonded by the metal beads present in the stop solution. This interaction increases the fluorescence polarization, which allows kinase activity to be determined. The assay was carried out in accordance with the instructions of the manufacturer as follows:
1 Vol. of inhibitor in 4% DMSO or 4% DMSO
1 Vol. of enzyme solution
Enzyme solution: for example SEQ ID NO: 12 and SEQ ID NO: 16 (1:1) in Complete Reaction Buffer ATP/substrate: 70 μM ATP/200 nM FAM-PKAtide or TAMRA-Kemptide in Complete Reaction Buffer
Fluorescence polarization was measured in a Tecan Ultra microtitre plate fluorimeter using the following measurement parameters:
Unless indicated otherwise, the activity of the AK was determined by the IMAP method as described under General Methods. […]

[2] = tested on: SEQ ID NO: 16 (MBP-AKA fusion protein; C terminus of aurora kinase activator um03367 of U. maydis with TAG)

Sequence of complex of SEQ ID NO: 12 and SEQ ID NO: 16 (MBP-AK / MBP-AKA) (A0A0D1E894 entry or part of it, one chain of several): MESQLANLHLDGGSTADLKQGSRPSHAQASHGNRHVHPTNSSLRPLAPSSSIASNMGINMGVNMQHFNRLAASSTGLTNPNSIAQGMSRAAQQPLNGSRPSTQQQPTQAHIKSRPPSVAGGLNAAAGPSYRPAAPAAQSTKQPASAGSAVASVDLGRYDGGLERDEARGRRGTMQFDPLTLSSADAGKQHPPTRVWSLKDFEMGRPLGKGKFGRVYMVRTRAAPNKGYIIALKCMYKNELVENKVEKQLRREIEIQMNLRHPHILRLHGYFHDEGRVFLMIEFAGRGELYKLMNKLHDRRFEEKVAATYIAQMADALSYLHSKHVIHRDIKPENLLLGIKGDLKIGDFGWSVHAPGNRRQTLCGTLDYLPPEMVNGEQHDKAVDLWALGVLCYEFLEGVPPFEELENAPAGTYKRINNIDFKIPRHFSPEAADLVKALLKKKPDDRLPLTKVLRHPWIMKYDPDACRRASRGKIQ

| Compound | IC50 [1] [nM] | AK activity, radioactive assay (phosphorylation of basic myelin protein) [2] | phosphorylation of basic myelin protein, PKAtide and Kemptide (IMAP fluorescence polarization assays) [2] | phosphorylation of substrates for human aurora kinase A (IMAP assay) [2] |
| --- | --- | --- | --- | --- |
| CN[C@@H]1C[C@H]2O[C@@](C)([C@@H]1OC)n1c3ccccc3c3c4c(c5c6ccccc6n2c5c31)C(=O)NC4 [staurosporine] | 2.1 | – | – | – |
| SEQ ID NO: 12 (MBP-AK fusion protein; aurora kinase um10119 of U. maydis with TAG) | – | SEQ ID NO: 12 in the presence of SEQ ID NO: 16 shows AK activity | The purified complex of MBP-SEQ ID NO: 12 and MBP-SEQ ID NO: 16 was capable of phosphorylating both basic myelin protein and the substrates for human aurora kinases, PKAtide and Kemptide | Both substrates for human aurora kinase A were phosphorylated by SEQ ID NO: 12 in the presence of SEQ ID NO: 16 |
